This is an account of results in US8779109B2, “Growth hormones with prolonged in-vivo efficacy” (Novo Nordisk Health Care AG, priority 2010, dated 2014).

For data set [1], the target named is T1, human growth hormone receptor (BAF-3 GHR cells) (Homo sapiens, UniProt P10912).
T1 construct: expressed in transfected cells; host or cells: BAF-3 (murine pro-B lymphoid cell line)
T1 sequence (P10912 19-638): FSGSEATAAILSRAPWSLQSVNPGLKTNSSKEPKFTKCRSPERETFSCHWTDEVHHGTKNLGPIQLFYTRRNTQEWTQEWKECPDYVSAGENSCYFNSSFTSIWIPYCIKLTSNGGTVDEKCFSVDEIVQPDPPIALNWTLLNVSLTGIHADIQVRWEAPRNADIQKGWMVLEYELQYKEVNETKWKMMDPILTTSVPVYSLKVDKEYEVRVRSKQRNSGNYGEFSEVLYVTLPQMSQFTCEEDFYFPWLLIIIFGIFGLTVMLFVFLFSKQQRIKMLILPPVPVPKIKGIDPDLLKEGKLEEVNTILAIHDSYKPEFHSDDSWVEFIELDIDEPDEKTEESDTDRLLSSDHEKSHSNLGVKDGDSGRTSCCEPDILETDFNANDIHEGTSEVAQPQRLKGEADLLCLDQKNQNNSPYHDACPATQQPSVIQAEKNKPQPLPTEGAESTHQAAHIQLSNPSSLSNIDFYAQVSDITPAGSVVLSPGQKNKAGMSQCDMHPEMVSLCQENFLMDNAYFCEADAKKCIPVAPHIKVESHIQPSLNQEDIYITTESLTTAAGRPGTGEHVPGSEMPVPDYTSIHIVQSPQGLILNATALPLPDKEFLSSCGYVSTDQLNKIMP
The experiment in a line: BAF-3 GHR assay to determine growth hormone activity. It counts as cell-based, mouse. To be noted: Table 5; relative to hGH = 1.0 (def).
Experimental: This clone can be used to evaluate the effect of different growth hormone samples on the survival of the BAF-3 GHR.
The BAF-3 GHR cells are grown in starvation medium (culture medium without growth hormone) for 24 hrs at 37° C., 5% CO2.
The cells are washed and re-suspended in starvation medium and seeded in plates. 10 μL of growth hormone compound or human growth hormone in different concentrations or control is added to the cells, and the plates are incubated for 68 hrs at 37° C., 5% CO2.
AlamarBlue® is added to each well and the cells are then incubated for another 4 hrs. The AlamarBlue® is a redox indicator, and is reduced by reactions innate to cellular metabolism and, therefore, provides an indirect measure of viable cell number.
Finally, the metabolic activity of the cells is measure in a fluorescence plate reader. The absorbance in the samples is expressed in % of cells not stimulated with growth hormone compound or control and from the concentration-response curves the activity (amount of a compound that stimulates the cells with 50%) can be calculated.

In another data set the test system is plasma IGF-1. Kind of data set: In vivo dose-response study in hypophysectomised Sprague Dawley rats (plasma IGF-1). To be noted: Table 5. As for the experimental part: The in vivo dose-response relationship is studied in hypophysectomised male Sprague Dawley rats. The hypophysectomised rat is a well known and recognised animal model of growth hormone deficiency, where no production of growth hormone occurs after the surgical removal of the pituitary gland. This also leads to low circulating levels of insulin-like growth factor-1 (IGF-1) another important clinical feature of growth hormone deficiency in humans.
The hypophysectomy is performed on 4 week old male rats weighing 90-100 g. The animals entering the study 3-4 weeks after the surgery weighing 100-110 g. Animals with a body weight gain of more than 10% during the 3-4 weeks after surgery are not allowed to enter the study.
Dose response studies are performed using five dose levels of compound 45.4 from 1-150 nmol/rat.

For data set [2] the following is noted: in vivo, iv.
Experimental: (§4) The pharmacokinetic of the compounds of the examples is investigated in male Sprague Dawley rats after intravenous (i.v.) and subcutaneous (s.c.) single dose administration.
(§5) Test compounds are diluted to a final concentration of 1 mg/mL in a dilution buffer consisting of: Glycine 20 mg/mL, mannitol 2 mg/mL, NaHCO3 2.5 mg/mL, pH adjusted to 8.2.
(§6) The test compounds are studied in male Sprague Dawley rats weighing 250 g. The test compounds are administered as a single injection either i.v. in the tail vein or s.c. in the neck with a 25 G needle at a dose of 60 nmol/kg body weight.
(§7) At each sampling time 0.25 ml blood is drawn from the tail vein using a 25 G needle. The blood is sampled into a EDTA coated test tube and stored on ice until centrifugation at 1200×G for 10 min at 4° C. Plasma is transferred to a Micronic tube and stored at −20° C. until analysis.
(§8) A non-compartmental pharmacokinetic analysis is performed on mean concentration-time profiles of each test compound using WinNonlin Professional (Pharsight Inc., Mountain View, Calif., USA). The pharmacokinetic parameter estimates of terminal half-life (t1/2) and mean residence time (MRT) are calculated.
The next data set deals with T2, chymotrypsin (Bos taurus, UniProt P00766).
T2 construct: purchased Roche
The experiment in a line: Protease stability, incubation with chymotrypsin. It is filed as in vitro ADME. Particulars: incubation for 4 hours with chymotrypsin. The source says:
(§1) The compound of interest is digested by a relevant protease (Trypsin, Chymotrypsin, Pepsin, Elastase, Factor VIIa, Factor Xa, Proteinase K, Carboxy peptidase, DPPIV, Neutral Endopeptidase, Granzyme B, Proline-endopeptidase, Staphylococcal peptidase I, Thermolysin, Thrombin, Arg-C proteinase, Asp-N endopeptidase, Caspase 1-10, Clostripain, Enterokinase, Glutamyl endopeptidase, Granzyme B, LysC, LysN, Proline-endopeptidase and Staphylococcal peptidase I or tissue extracts.) in an appropriate buffer (e.g. PBS or ammonium bicarbonate) at 37° C. for up till 24 hrs. Proteolytic degradation is assessed by a HPLC assay.
(§2) 100 μL of test compound solution at 1 mg/mL in ammonium bicarbonate buffer is degraded by enzyme for up till 24 hrs at 37° C. […] These diluted samples are analysed by reversed phase HPLC to estimate the degree of proteolytic digestion.
(§3) 10 μL of the above solution is injected on a reversed phase Vydac C4 2×150 mm column eluted with a linear gradient from 0.1% TFA in water to 100% acetonitrile containing 0.1% TFA over a period of 30 min at a flow rate of 0.2 ml/min. […] Percentage (%) intact compound at time point t=T is calculated from the peak area at time point t=T (AT) and the peak area at t=0 (A0) as (AT/A0)×100%. […] Half life (T1/2) is calculated as one phase decay also by GraphPad Prism software. […]

The target in another data set is T3, elastase (Sus scrofa, UniProt P00772).
T3 construct: purchased Sigma; host or cells: porcine pancreas
T3 sequence (P00772 27-266): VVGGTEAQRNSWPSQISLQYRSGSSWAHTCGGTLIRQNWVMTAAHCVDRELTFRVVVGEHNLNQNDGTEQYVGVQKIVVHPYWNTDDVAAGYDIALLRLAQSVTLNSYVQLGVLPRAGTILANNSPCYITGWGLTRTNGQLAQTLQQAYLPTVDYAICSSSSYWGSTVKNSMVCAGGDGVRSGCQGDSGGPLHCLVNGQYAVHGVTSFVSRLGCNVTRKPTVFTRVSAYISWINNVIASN
The experiment in a line: Protease stability, incubation with elastase. To be noted: incubation for 4 hours with elastase. It counts as in vitro ADME, porcine.
Excerpt: as §1, §2, §3

Data set [3] in a line: Pharmacokinetics in Sprague Dawley rats after i.v. and s.c. single dose.
Experimental: as §4, §5, §6, §7, §8

Where two headings read alike, the source gives them in different places.

One may read the MRT as a mean duration of stay, worked out from the concentration-time curve. In data set [1], “2-(C20diacid-Trx-γGlu-OEG-OEG-δLys)-carbonylmethylene-S^101-hGH[L101C] [Compound 44.1]” came in with an In vitro potency of 4.7. Further, in the data set on plasma IGF-1, the “Duration of IGF-1 increase” value was over 48 h. Besides, in data set [2], the “T1/2 (i.v. Rat)” value came out at 5.6 h. In data set [2] (rat, 60 nmol/kg), the “MRT” value is reported as 7.2 h and the “T1/2” value was 5.6 h.

With “hGH: wild-type human growth hormone, 191 amino acid residue protein (SEQ ID NO: 1)”, in the data set with chymotrypsin, the “Chymotrypsin (% intact GH compound)” value amounted to 40%. In addition, in the data set with elastase, the “Elastase (% intact GH compound)” value worked out at 25%. In addition, the “T1/2 (i.v. Rat)” value in data set [3] (Table 4) and in data set [3] (Table 5) was 0.23 h in each case.
